B1: ZNF263 (parent)
chain: FAHSSNLLRHQRIHTGERPYKCPE

Variants of: B1
Assay: protein stability index of a GFP-peptide fusion (GPS, HEK-293T) (PSI 1-6); higher = more stable
Details: c terminus: a fixed tail appended
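Also: lentivirally expressed fusions sorted by FACS into six bins by GFP to DsRed ratio, PSI derived from sequencing read proportions per bin multiplied by bin number.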

Protein stability index of substitutions, site by site:
L8: Y 2.78
R9: A 2.39, C 2.68, D 2.62, E 3.23, F 2.06, G 2.45, H 2.85, I 2.21, K 2.93, L 2.88, M 3.05, N 2.85, P 3.19, Q 2.87, S 2.63, T 2.9, V 2.58, Y 2.36
H10: A 2.38, C 2.76, D 3.13, E 2.77, F 1.69, G 2.44, I 1.81, K 1.73, L 1.94, M 1.91, N 2.38, P 2.82, Q 2.37, R 1.8, S 1.95, T 2.2, V 1.79, W 1.8, Y 2.51
Q11: A 1.61, C 3.7, D 2.98, E 2.56, F 1.48, G 2.18, H 2.5, I 1.31, K 2.03, L 1.69, M 1.84, N 3.13, P 1.79, R 2.2, S 1.98, T 2.28, V 2.14, Y 2.49
R12: A 2.91, C 2.54, D 3.3, E 2.95, F 2.17, G 2.72, H 3.01, I 2.33, K 2.56, L 2.44, M 2.52, N 2.84, P 2.38, Q 3.09, S 2.8, T 2.48, V 2.73, W 1.87, Y 2.1
I13: A 2.85, C 2.46, D 3.09, E 3.23, F 2.14, G 2.91, H 2.77, K 2.68, L 2.07, M 2.12, N 2.99, P 3.22, Q 2.83, R 2.39, S 2.68, T 2.82, V 2.13, W 1.99, Y 2.43
H14: A 2.99, C 3.21, D 2.81, E 2.73, F 2.16, G 2.59, I 2.57, K 2.08, L 2.57, M 3, N 2.71, P 3.05, Q 2.98, R 2.18, S 2.46, T 1.91, V 2.34, W 3.6, Y 1.9
T15: A 1.97, C 1.95, D 2.56, E 2.24, F 2.58, G 2.19, H 2.12, I 2.29, K 1.99, L 2.36, M 2.36, N 2.36, P 1.87, Q 2.19, R 2.5, S 2.65, V 2.68, W 1.6, Y 2.23
G16: A 2.37, C 2.36, D 2.77, E 2.67, F 1.37, H 2.02, I 2.22, K 2.23, L 2.07, M 1.88, N 2.43, P 2.37, Q 2.01, R 1.57, S 1.97, T 2.56, V 2.1, W 1.32, Y 1.93
E17: A 2.31, C 1.65, D 1.91, F 1.95, G 1.81, H 2.47, I 2.29, K 1.44, L 2.04, M 1.98, N 1.8, P 2.63, Q 2.86, R 1.95, S 2.29, T 2.19

Reference: the supplement of paper PMC10567573
